# Patent publication US20190330344A1 (F STAR THERAPEUTICS, published 2019)
# Columns and labels:
# [1] = biological target: human FcγRIIb (human) (UniProt P31994); test: SPR (Biacore T200), FcγR immobilised, 500 µg/ml analyte
# [2] = biological target: human FcγRIIa (human) (UniProt P12318); test: as above
# [3] = biological target: human FcγRIII (human) (UniProt P08637); test: SPR (Biacore T200), FcγR immobilised, 200 µg/ml analyte
# [4] = biological target: human FcγRI (human) (UniProt P12314); test: as above
# Chain of human FcγRI (human) (P12314 16-288 limits assumed): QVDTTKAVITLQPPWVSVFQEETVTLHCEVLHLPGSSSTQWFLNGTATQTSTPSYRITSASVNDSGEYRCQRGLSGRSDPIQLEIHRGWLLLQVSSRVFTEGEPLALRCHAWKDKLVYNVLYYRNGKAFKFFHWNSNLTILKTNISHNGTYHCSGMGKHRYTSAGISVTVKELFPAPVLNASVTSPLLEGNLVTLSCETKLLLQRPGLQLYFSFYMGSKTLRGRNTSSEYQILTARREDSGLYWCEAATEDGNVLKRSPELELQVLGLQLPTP
# [5] = biological target: mouse LAG-3 expressed on cells (HEK cells expressing mLAG-3 or DO11.10 mLAG-3) (mouse) (UniProt Q61790); test: cell-based or functional assay
# [6] = biological target: T1, human LAG-3 expressed on cells (DO11.10 or HEK 293 cells over-expressing human LAG-3) (human, UniProt P18627 23-525); test: cell-based or functional assay
# T1 sequence: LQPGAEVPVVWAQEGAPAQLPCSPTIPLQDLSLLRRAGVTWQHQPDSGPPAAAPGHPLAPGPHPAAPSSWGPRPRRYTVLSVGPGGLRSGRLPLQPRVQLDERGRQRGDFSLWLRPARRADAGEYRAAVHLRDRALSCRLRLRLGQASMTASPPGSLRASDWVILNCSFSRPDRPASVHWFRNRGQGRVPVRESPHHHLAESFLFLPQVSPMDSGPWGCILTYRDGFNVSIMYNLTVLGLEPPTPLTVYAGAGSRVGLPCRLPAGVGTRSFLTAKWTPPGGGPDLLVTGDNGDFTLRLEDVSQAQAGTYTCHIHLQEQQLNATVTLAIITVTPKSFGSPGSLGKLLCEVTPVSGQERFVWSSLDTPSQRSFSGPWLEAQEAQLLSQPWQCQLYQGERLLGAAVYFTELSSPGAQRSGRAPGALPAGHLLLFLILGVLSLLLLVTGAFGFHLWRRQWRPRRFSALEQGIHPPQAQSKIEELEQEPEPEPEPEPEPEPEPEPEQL
# [7] = biological target: T2, mouse LAG-3 expressed on cells (HEK cells expressing mLAG-3 or DO11.10 mLAG-3) (mouse, UniProt Q61790 24-521); test: cell-based or functional assay
# T2 sequence: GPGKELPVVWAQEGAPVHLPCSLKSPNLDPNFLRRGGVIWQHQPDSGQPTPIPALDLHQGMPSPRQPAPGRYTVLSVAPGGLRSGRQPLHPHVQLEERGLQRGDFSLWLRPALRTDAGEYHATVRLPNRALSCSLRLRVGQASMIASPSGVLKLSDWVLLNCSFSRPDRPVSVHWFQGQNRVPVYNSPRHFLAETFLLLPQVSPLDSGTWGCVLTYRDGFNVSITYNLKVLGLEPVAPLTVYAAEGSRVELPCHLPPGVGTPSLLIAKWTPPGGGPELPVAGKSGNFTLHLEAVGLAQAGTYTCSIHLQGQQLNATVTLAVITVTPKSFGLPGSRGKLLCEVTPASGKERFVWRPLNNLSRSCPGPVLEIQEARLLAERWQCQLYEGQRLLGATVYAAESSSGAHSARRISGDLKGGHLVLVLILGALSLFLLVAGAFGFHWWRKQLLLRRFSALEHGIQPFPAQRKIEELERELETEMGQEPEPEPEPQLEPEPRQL
# Chain of human FcγRIII (human) (P08637 17-208 limits assumed): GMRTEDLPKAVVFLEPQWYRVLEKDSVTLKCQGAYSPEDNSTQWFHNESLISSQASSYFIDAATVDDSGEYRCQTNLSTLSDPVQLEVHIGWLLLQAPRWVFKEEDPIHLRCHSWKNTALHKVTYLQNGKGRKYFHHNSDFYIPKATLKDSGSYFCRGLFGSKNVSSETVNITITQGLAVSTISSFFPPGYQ
# Chain of human FcγRIIb (human) (P31994 46-217 limits assumed): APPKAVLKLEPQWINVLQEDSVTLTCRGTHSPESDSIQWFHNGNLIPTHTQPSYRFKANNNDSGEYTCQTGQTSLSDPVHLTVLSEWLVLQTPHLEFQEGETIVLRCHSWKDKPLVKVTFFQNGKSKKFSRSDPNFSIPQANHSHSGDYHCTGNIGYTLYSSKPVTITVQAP
# Chain of human FcγRIIa (human) (P12318 36-218 limits assumed): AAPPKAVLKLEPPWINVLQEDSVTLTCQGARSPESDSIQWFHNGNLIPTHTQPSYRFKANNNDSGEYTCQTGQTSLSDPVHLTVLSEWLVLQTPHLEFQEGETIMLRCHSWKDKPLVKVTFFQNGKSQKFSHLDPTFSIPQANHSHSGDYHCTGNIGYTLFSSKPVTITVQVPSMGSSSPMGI
molecule,measurement,setting,value
"mock mAb IgG1 (wild type IgG1 isotype mAb, positive control without LALA) (antibody)",Binding response at end of association (RU),[1],17.7 RU
same,Binding response at end of association (RU),[2],13 RU
same,Binding response at end of association (RU),[3],44 RU
same,Binding response at end of association (RU),[4],26 RU
mock mAb LALA (control LALA IgG1 mAb) (antibody),Binding response at end of association (RU),[1],-9.6 RU
same,Binding response at end of association (RU),[2],-12.7 RU
same,Binding response at end of association (RU),[3],8 RU
same,Binding response at end of association (RU),[4],2 RU
"benchmark anti-mouse LAG-3 mAb C9B7W (2B Scientific, BE0174-50MG) (antibody)","EC50 of mIL-2 release, DO11.10 T cell activation assay (mouse LAG-3)",[5],5.1 nM
same,Maximal IL-2 release,[5],48 pg/mL
anti-human LAG-3 Fcab FS18-7-95 with truncated hinge and LALA mutation (designed binder) TCPPCPAPEAAGGPSVFLFPPKPKDTLMISRTPEVTCVVVDVSHEDPEVKFNWYVDGVEVHNAKTKPREEQYNSTYRVVSVLTVLHQDWLNGKEYKCKVSNKALPAPIEKTISKAKGQPREPQVYTLPPSWDEPWGEDVSLTCLVKGFYPSDIAVEWESNGYQEDNYKTTPPVLDSDGSFFLYSKLTVPYDRWVWPDEFSCSVMHEALHNHYTQKSLSLSPG,"EC50 of mIL-2 release, DO11.10 T cell activation assay (human LAG-3)",[6],0.8 nM
anti-human LAG-3 Fcab FS18-7-9 with truncated hinge and LALA mutation (designed binder) TCPPCPAPEAAGGPSVFLFPPKPKDTLMISRTPEVTCVVVDVSHEDPEVKFNWYVDGVEVHNAKTKPREEQYNSTYRVVSVLTVLHQDWLNGKEYKCKVSNKALPAPIEKTISKAKGQPREPQVYTLPPSWDEPWGEDVSLTCLVKGFYPSDIAVEWESNGQPENNYKTTPPVLDSDGSFFLYSKLTVPYDRWVWPDEFSCSVMHEALHNHYTQKSLSLSPG,"EC50 of mIL-2 release, DO11.10 T cell activation assay (human LAG-3)",[6],1.2 nM
anti-human LAG-3 Fcab FS18-7-58 with truncated hinge and LALA mutation (designed binder) TCPPCPAPEAAGGPSVFLFPPKPKDTLMISRTPEVTCVVVDVSHEDPEVKFNWYVDGVEVHNAKTKPREEQYNSTYRVVSVLTVLHQDWLNGKEYKCKVSNKALPAPIEKTISKAKGQPREPQVYTLPPSWDEPWGEDVSLTCLVKGFYPSDIAVEWESNGYPEIEFKTTPPVLDSDGSFFLYSKLTVPYDRWVWPDEFSCSVMHEALHNHYTQKSLSLSPG,"EC50 of mIL-2 release, DO11.10 T cell activation assay (human LAG-3)",[6],1.3 nM
anti-human LAG-3 Fcab FS18-7-36 with truncated hinge and LALA mutation (designed binder) TCPPCPAPEAAGGPSVFLFPPKPKDTLMISRTPEVTCVVVDVSHEDPEVKFNWYVDGVEVHNAKTKPREEQYNSTYRVVSVLTVLHQDWLNGKEYKCKVSNKALPAPIEKTISKAKGQPREPQVYTLPPSWDEPWGEDVSLTCLVKGFYPSDIAVEWESNGQPENNYKTTPPVLDSDGSYFLYSKLTVPYDRWVWPDEFSCSVMHEALHNHYTQKSLSLSPG,"EC50 of mIL-2 release, DO11.10 T cell activation assay (human LAG-3)",[6],1.3 nM
anti-human LAG-3 Fcab FS18-7-88 with truncated hinge and LALA mutation (designed binder) TCPPCPAPEAAGGPSVFLFPPKPKDTLMISRTPEVTCVVVDVSHEDPEVKFNWYVDGVEVHNAKTKPREEQYNSTYRVVSVLTVLHQDWLNGKEYKCKVSNKALPAPIEKTISKAKGQPREPQVYTLPPSWDEPWGEDVSLTCLVKGFYPSDIAVEWESNGVPELNVKTTPPVLDSDGSFFLYSKLTVPYDRWVWPDEFSCSVMHEALHNHYTQKSLSLSPG,"EC50 of mIL-2 release, DO11.10 T cell activation assay (human LAG-3)",[6],1.3 nM
anti-human LAG-3 Fcab FS18-7-33 with truncated hinge and LALA mutation (designed binder) TCPPCPAPEAAGGPSVFLFPPKPKDTLMISRTPEVTCVVVDVSHEDPEVKFNWYVDGVEVHNAKTKPREEQYNSTYRVVSVLTVLHQDWLNGKEYKCKVSNKALPAPIEKTISKAKGQPREPQVYTLPPSWDEPWGEDVSLTCLVKGFYPSDIAVEWESNGQPEDNYKTTPPVLDSDGSFFLYSKLTVPYDRWVWPDEFSCSVMHEALHNHYTQKSLSLSPG,"EC50 of mIL-2 release, DO11.10 T cell activation assay (human LAG-3)",[6],1.1 nM
anti-human LAG-3 Fcab FS18-7-32 with truncated hinge and LALA mutation (designed binder) TCPPCPAPEAAGGPSVFLFPPKPKDTLMISRTPEVTCVVVDVSHEDPEVKFNWYVDGVEVHNAKTKPREEQYNSTYRVVSVLTVLHQDWLNGKEYKCKVSNKALPAPIEKTISKAKGQPREPQVYTLPPSWDEPWGEDVSLTCLVKGFYPSEIAVEWESNGQPENNYKTTPPVLDSDGSFFLYSKLTVPYDRWVWPDEFSCSVMHEALHNHYTQKSLSLSPG,"EC50 of mIL-2 release, DO11.10 T cell activation assay (human LAG-3)",[6],1.7 nM
anti-human LAG-3 Fcab FS18-7-65 with truncated hinge and LALA mutation (designed binder) TCPPCPAPEAAGGPSVFLFPPKPKDTLMISRTPEVTCVVVDVSHEDPEVKFNWYVDGVEVHNAKTKPREEQYNSTYRVVSVLTVLHQDWLNGKEYKCKVSNKALPAPIEKTISKAKGQPREPQVYTLPPSWDEPWGEDVSLTCLVKGFYPSDIAVEWESNGYAEYNYKTTPPVLDSDGSFFLYSKLTVPYDRWVWPDEFSCSVMHEALHNHYTQKSLSLSPG,"EC50 of mIL-2 release, DO11.10 T cell activation assay (human LAG-3)",[6],1.1 nM
"surrogate anti-mouse LAG-3 Fcab FS18-7-108-29 with truncated hinge, comprising LALA mutation (designed binder) TCPPCPAPEAAGGPSVFLFPPKPKDTLMISRTPEVTCVVVDVSHEDPEVKFNWYVDGVEVHNAKTKPREEQYNSTYRVVSVLTVLHQDWLNGKEYKCKVSNKALPAPIEKTISKAKGQPREPQVYTLPPSWDEPWGEDVSLTCLVKGFYPSDIVVEWESNGQPENNYKTTPPVLDSDGSFFLYSKLTVPFERWMWPDEFSCSVMHEALHNHYTQKSLSLSPG","EC50 of mIL-2 release, DO11.10 T cell activation assay (mouse LAG-3)",[7],1.9 nM
anti-human LAG-3 Fcab FS18-7-62 with truncated hinge and LALA mutation (designed binder) TCPPCPAPEAAGGPSVFLFPPKPKDTLMISRTPEVTCVVVDVSHEDPEVKFNWYVDGVEVHNAKTKPREEQYNSTYRVVSVLTVLHQDWLNGKEYKCKVSNKALPAPIEKTISKAKGQPREPQVYTLPPSWDEPWGEDVSLTCLVKGFYPSDIAVEWESNGIPEWNYKTTPPVLDSDGSFFLYSKLTVPYDRWVWPDEFSCSVMHEALHNHYTQKSLSLSPG,"EC50 of mIL-2 release, DO11.10 T cell activation assay (human LAG-3)",[6],1.1 nM
"surrogate anti-mouse LAG-3 Fcab FS18-7-108-35 with truncated hinge, comprising LALA mutation (designed binder) TCPPCPAPEAAGGPSVFLFPPKPKDTLMISRTPEVTCVVVDVSHEDPEVKFNWYVDGVEVHNAKTKPREEQYNSTYRVVSVLTVLHQDWLNGKEYKCKVSNKALPAPIEKTISKAKGQPREPQVYTLPPSWDEPWGEDVSLTCLVKGFYPSDISVEWESNGQPENNYKTTPPVLDSDGSFFLYSKLTVPFERWMWPDEFSCSVMHEALHNHYTQKSLSLSPG","EC50 of mIL-2 release, DO11.10 T cell activation assay (mouse LAG-3)",[7],1.8 nM
anti-human LAG-3 Fcab FS18-7-78 with truncated hinge and LALA mutation (designed binder) TCPPCPAPEAAGGPSVFLFPPKPKDTLMISRTPEVTCVVVDVSHEDPEVKFNWYVDGVEVHNAKTKPREEQYNSTYRVVSVLTVLHQDWLNGKEYKCKVSNKALPAPIEKTISKAKGQPREPQVYTLPPSWDEPWGEDVSLTCLVKGFYPSDIAVEWESNGYKEENYKTTPPVLDSDGSFFLYSKLTVPYDRWVWPDEFSCSVMHEALHNHYTQKSLSLSPG,"EC50 of mIL-2 release, DO11.10 T cell activation assay (human LAG-3)",[6],1 nM
